Drawing on patent US20240261333A1, “NOVEL TARGETS FOR ENHANCING ANTI-TUMOR IMMUNITY” (THE BROAD INSTITUTE, INC., priority 2021, published 2024), this text covers co-IP mass spectrometry count for 2 substances.

One test has as its target RPL27A (UniProt P46776). The test can be described thus: co-IP, anti-FLAG, N-FLAG B3GNT2 cell lysate, mass spectrometry.
The next test addresses ITGB3 (UniProt P05106). The description is as above.
For the next test, the target named is MTCH2 (UniProt Q9Y6C9). The test is described as above.
The target in the next test is RPL3 (UniProt P39023). The test is described as above.
For another test, the target named is RPL35 (UniProt P42766). The description is as above.
Another test addresses TMEM59 (UniProt Q9BXS4). The description is as above.
The target of the next test is S100A8 (UniProt P05109). Nature of the test: co-IP with anti-FLAG, mass spectrometry; N-FLAG B3GNT2.
The next test has as its target TRIM21 (UniProt P19474). The description is as above.
For the next test, the target named is ACTR3 (UniProt P61158). Described as above.
In a further test the target is ATP5F1B (UniProt P06576). The description is as above.
The next test has as its target SPRR2E (UniProt P22531). Described as above.
The target of another test is FABP5 (UniProt Q01469). Described as above.
Another test addresses PCMT1 (UniProt P22061). The test is described as above.
The target of a further test is AHNAK (UniProt Q09666). Described as above.
In another test the target is STRAP (UniProt Q9Y3F4). The test is described as above.
The next test concerns the target ENO1 (UniProt P06733). The description is as above.
A further test concerns the target YWHAZ (UniProt P63104). Described as above.
A further test deals with S100A9 (UniProt P06702). The description is as above.
The target of the next test is UBA52 (UniProt P62987). Described as above.
The target in another test is PPIA (UniProt P62937). Described as above.
The next test deals with SERPINB12 (UniProt Q96P63). Described as above.
The next test deals with SSR1 (UniProt P43307). The test is described as above.
The target in a further test is CTHRC1 (human) (UniProt Q96CG8). The test can be described thus: co-IP with control IgG, mass spectrometry; lysate of cells with N-FLAG B3GNT2.
Another test deals with CCT7 (human) (UniProt Q99832). Described as above.
For the next test, the target named is RPS4X (human) (UniProt P62701). Described as above.
Another test addresses DNAJB11 (human) (UniProt Q9UBS4). Described as above.
For a further test, the target named is MARS (human) (UniProt P56192). The description is as above.
The target of another test is CD70 (human) (UniProt P32970). The test is described as above.
The target of a further test is MYO1C (human) (UniProt O00159). The test is described as above.
The target of the next test is RPL26 (human) (UniProt P61254). Described as above.
For another test, the target named is HADHA (human) (UniProt P40939). The description is as above.
Another test addresses UGGT1 (human) (UniProt Q9NYU2). The description is as above.
A further test has as its target GALNT2 (human) (UniProt Q10471). The test is described as above.
In another test the target is RRP12 (human) (UniProt Q5JTH9). The description is as above.
The next test has as its target IPO13 (human) (UniProt O94829). The test is described as above.
The target of another test is GANAB (human) (UniProt Q14697). The test is described as above.
The target of the next test is HSPD1 (human) (UniProt P10809). The description is as above.
Another test has as its target SLC25A5 (human) (UniProt P05141). The test is described as above.
For another test, the target named is PJA2 (human) (UniProt O43164). The test is described as above.

Chain of SLC25A5 (human) (P05141 2-298 limits assumed): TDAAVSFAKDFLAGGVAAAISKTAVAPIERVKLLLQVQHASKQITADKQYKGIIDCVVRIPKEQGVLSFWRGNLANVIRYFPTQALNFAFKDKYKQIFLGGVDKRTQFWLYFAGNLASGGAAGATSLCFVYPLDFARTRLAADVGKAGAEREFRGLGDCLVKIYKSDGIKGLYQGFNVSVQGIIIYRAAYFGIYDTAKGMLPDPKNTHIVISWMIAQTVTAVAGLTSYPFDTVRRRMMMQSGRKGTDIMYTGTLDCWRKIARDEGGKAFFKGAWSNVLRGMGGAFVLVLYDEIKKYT
Chain of HSPD1 (human) (P10809 27-573 limits assumed): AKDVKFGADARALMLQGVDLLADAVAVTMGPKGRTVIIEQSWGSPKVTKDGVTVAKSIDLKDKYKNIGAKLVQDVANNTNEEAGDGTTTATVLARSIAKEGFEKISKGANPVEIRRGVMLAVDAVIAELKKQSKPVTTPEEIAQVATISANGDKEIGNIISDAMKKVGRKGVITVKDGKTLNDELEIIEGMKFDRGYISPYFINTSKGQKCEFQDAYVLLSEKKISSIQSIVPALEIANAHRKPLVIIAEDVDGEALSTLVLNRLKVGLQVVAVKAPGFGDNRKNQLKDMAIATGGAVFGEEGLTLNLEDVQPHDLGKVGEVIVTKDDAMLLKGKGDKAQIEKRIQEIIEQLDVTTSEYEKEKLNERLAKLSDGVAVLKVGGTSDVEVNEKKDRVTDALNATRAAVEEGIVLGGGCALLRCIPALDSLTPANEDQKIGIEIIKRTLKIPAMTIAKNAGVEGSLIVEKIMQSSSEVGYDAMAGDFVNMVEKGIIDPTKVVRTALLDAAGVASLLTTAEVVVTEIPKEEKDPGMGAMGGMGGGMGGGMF
Chain of IPO13 (human) (O94829 whole entry): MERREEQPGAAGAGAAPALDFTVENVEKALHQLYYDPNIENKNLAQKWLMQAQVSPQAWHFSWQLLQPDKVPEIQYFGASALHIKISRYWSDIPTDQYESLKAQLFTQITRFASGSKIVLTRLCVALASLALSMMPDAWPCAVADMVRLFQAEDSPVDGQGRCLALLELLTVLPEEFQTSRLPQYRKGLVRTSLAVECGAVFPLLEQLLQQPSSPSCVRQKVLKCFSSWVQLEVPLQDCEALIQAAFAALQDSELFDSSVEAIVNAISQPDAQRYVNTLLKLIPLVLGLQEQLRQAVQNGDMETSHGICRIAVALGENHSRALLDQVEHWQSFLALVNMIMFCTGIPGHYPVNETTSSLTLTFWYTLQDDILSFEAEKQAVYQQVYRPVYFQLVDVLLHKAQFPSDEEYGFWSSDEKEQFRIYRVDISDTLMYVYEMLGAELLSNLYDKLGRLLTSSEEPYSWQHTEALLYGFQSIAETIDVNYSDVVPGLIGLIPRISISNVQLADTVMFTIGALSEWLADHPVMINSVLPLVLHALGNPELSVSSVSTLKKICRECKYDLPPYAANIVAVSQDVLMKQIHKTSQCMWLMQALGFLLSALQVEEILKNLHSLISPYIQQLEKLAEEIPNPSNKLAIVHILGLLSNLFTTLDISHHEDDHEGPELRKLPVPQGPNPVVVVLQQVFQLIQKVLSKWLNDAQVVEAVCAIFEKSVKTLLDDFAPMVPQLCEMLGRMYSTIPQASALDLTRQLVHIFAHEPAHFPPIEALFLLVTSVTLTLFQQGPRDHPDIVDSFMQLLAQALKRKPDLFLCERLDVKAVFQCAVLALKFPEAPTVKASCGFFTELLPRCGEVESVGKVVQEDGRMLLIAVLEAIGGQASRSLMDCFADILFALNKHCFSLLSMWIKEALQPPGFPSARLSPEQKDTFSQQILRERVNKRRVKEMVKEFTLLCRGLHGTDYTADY
Chain of GALNT2 (human) (Q10471 whole entry): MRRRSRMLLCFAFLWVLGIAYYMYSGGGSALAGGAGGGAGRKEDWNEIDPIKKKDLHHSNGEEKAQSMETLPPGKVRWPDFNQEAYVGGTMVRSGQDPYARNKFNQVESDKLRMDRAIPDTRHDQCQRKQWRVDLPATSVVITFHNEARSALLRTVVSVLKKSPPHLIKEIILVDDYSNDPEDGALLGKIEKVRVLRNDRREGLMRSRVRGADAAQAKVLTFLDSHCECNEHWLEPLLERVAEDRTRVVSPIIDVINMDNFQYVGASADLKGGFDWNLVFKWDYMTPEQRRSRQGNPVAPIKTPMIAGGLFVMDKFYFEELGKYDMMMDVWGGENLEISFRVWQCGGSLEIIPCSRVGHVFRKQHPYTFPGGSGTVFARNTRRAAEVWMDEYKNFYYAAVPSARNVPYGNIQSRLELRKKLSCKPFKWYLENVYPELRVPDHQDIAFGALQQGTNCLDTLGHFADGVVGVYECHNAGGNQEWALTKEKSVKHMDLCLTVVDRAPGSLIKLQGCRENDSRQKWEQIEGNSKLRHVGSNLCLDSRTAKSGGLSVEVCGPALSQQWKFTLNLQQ
Chain of CTHRC1 (human) (Q96CG8 other isoform, or with tags, fused parts or gaps limits assumed): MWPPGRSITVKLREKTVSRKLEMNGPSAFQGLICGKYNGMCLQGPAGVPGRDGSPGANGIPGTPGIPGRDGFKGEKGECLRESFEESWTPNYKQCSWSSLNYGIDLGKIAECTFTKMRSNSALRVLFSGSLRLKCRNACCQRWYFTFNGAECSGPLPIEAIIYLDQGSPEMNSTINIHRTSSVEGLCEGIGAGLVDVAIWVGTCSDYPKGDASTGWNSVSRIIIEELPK
Chain of STRAP (Q9Y3F4 whole entry): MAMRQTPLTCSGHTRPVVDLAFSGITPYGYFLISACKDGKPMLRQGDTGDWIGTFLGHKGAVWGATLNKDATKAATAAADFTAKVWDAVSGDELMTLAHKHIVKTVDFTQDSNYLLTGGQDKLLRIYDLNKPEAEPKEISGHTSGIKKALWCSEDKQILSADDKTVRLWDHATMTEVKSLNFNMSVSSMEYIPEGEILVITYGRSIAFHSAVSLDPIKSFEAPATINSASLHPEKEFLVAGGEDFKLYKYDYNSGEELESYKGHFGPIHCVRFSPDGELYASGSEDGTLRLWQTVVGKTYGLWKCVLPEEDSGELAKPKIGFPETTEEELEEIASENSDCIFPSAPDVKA
Chain of S100A9 (P06702 whole entry): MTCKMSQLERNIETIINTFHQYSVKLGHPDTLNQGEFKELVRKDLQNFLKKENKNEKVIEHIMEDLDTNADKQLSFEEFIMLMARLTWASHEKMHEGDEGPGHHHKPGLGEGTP
Chain of TRIM21 (P19474 whole entry): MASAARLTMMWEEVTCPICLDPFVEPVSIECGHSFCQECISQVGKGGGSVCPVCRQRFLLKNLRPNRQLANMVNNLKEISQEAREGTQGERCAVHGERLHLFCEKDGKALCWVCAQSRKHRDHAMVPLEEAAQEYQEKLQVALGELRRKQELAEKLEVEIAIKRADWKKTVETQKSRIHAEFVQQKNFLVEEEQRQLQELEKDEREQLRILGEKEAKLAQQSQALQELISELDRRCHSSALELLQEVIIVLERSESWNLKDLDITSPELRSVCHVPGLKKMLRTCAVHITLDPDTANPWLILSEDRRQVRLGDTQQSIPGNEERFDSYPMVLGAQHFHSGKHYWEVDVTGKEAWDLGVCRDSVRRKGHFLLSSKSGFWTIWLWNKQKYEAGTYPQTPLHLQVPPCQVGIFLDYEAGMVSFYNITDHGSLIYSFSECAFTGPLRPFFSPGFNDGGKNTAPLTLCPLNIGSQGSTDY
Chain of ITGB3 (P05106 27-788 limits assumed): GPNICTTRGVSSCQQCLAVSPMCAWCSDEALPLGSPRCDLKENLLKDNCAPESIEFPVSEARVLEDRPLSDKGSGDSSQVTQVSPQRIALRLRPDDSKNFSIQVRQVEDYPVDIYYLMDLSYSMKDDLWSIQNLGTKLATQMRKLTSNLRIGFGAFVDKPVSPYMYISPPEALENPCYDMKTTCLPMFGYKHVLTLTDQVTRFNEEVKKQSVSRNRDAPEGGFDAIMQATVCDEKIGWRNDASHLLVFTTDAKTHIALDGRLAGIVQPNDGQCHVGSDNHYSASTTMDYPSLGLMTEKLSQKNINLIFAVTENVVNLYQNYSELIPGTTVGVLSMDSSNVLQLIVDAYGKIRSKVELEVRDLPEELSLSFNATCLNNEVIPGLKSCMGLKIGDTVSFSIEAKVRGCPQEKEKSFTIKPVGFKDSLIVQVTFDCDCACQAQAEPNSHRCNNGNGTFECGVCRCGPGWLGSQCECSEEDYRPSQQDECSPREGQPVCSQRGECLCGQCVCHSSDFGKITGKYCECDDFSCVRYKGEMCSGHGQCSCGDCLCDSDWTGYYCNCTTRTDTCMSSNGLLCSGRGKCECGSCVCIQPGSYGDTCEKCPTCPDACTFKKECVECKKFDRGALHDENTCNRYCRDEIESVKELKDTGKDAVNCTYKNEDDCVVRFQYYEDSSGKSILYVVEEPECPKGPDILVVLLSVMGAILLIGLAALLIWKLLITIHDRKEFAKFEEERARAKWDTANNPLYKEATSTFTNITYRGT
Chain of TMEM59 (Q9BXS4 36-323 limits assumed): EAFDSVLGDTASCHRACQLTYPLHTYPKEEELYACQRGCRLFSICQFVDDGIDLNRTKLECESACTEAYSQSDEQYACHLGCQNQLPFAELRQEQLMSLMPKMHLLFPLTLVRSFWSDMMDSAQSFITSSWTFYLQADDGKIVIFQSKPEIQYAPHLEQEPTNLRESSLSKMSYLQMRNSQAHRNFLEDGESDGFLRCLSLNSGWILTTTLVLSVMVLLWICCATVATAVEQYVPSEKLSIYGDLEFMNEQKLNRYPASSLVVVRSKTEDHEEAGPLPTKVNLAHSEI
Chain of YWHAZ (P63104 whole entry): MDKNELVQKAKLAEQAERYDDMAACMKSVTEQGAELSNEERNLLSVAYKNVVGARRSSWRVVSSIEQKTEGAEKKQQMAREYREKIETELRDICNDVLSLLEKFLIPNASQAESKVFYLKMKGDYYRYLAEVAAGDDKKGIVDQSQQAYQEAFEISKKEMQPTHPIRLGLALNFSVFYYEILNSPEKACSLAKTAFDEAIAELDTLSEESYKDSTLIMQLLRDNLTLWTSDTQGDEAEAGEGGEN
Chain of S100A8 (P05109 whole entry): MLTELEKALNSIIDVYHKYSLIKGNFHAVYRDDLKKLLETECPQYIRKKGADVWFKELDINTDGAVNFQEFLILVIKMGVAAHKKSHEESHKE

Consider “N-terminal FLAG tagged B3GNT2 (from UniProt Q9NY97 1-397) (enzyme)”, for which the co-IP mass spectrometry count in the test with RPL27A is 7; with ITGB3, 3; with MTCH2, 4; with RPL3, 8; in the test with RPL35, 7; with TMEM59 it was 6. The co-IP mass spectrometry count came to 15 with S100A8; 6 in the test with TRIM21; 3 with ACTR3; 2 in the test with ATP5F1B; 16 in the test with SPRR2E; 6 with FABP5. Further, the co-IP mass spectrometry count in the test with PCMT1 came to 4; with AHNAK, 3; with STRAP it was 4; with ENO1, 5; with YWHAZ it was 2; with S100A9, 18. Besides, the co-IP mass spectrometry count was found to be 4 with UBA52, 6 with PPIA, 4 with SERPINB12 and 3 with SSR1.

As for “IgG control (Millipore Sigma 12-371) (antibody)”, the co-IP mass spectrometry count with CTHRC1 (human) was found to be 0; with CCT7 (human) it was 0; with RPS4X (human) it was 12; with DNAJB11 (human), 0; in the test with MARS (human), 0; in the test with CD70 (human), 0. Moreover, the co-IP mass spectrometry count was found to be 0 with MYO1C (human); 5 in the test with RPL26 (human); 0 in the test with HADHA (human); 0 with UGGT1 (human); 0 with GALNT2 (human); 0 in the test with RRP12 (human). Moreover, the co-IP mass spectrometry count was determined as 0 with IPO13 (human); 0 with GANAB (human); 0 with HSPD1 (human); 6 in the test with SLC25A5 (human); 0 with PJA2 (human).
